The record followed here is PMC11828899, “Structural insights into human brachyury DNA recognition and discovery of progressible binders for cancer therapy”.

Series [1] deals with T1, Brachyury DNA binding domain WT (Homo sapiens, UniProt O15178 41-224).
T1 sequence: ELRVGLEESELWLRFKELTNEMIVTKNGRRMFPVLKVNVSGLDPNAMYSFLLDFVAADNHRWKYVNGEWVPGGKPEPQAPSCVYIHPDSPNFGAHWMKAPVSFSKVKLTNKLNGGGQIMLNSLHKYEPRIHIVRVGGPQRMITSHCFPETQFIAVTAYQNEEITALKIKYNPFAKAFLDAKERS
The series can be described thus: X-ray crystallography; 2.25 A; two protomers per duplex; EMSA: 25 mM HEPES pH 7.4, 75 mM NaCl, 10% glycerol, 0.1% Tween 20, 1 mM TCEP, on ice 10 min; SPR: 10 mM HEPES pH 7.5, 150 mM NaCl, 1 mM DTT, 1% DMSO, temperature not stated. The following applies: protein: recombinant; chain copies: 2; blunt, self-complementary, 2 copies of strand. For orientation: Mobility shift assays separate free from complexed probe on a gel.

Series [2] deals with T2, Brachyury full-length G177D (Homo sapiens, UniProt O15178 1-435, G177D).
T2 sequence: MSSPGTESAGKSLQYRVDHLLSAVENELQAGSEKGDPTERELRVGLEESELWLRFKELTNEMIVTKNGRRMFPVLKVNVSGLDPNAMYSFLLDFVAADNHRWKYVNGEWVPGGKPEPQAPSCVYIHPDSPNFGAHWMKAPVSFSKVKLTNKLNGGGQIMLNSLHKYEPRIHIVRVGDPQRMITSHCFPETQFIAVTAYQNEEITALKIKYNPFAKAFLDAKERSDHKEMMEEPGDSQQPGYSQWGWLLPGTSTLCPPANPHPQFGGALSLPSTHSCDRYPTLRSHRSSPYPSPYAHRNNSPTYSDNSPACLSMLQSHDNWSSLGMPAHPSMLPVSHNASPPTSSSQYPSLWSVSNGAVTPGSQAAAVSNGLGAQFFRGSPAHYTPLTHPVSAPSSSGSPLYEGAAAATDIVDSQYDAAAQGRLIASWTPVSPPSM
The series can be described thus: SPR; protein immobilized; steady-state fit; EMSA: 25 mM HEPES pH 7.4, 75 mM NaCl, 10% glycerol, 0.1% Tween 20, 1 mM TCEP, on ice 10 min; SPR: 10 mM HEPES pH 7.5, 150 mM NaCl, 1 mM DTT, 1% DMSO, temperature not stated. Conditions: protein: recombinant; tags: C-terminal AVI tag, biotinylated; N-terminal 9His-GST removed with TEV (construct stated for SPR/DSF); chain copies: 2; label: 32P 5' end (EMSA); none stated (SPR); blunt.

The target in series [3] is T3, Brachyury full-length WT (Homo sapiens, UniProt O15178 1-435).
T3 sequence: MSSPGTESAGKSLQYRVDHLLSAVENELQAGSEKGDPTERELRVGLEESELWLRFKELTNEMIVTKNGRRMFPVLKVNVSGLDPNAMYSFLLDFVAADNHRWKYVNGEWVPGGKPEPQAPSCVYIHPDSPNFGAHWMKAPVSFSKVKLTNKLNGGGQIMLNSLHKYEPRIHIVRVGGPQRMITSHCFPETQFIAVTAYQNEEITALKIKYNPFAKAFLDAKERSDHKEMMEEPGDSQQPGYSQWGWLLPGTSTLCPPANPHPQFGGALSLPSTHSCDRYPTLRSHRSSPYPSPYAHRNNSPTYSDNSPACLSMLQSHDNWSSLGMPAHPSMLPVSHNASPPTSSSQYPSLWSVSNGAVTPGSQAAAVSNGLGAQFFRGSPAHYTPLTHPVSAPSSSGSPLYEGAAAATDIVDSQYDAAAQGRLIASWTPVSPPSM
Described as above. The following applies: protein: recombinant; tags: C-terminal AVI tag, biotinylated; N-terminal 9His-GST removed with TEV (construct stated for SPR/DSF); chain copies: 2; label: 32P 5' end (EMSA); none stated (SPR); blunt.

Series [4] addresses T2, Brachyury full-length G177D. The series can be described thus: EMSA; apparent; Hill slope 1.8; DNA 1-5 nM; EMSA: 25 mM HEPES pH 7.4, 75 mM NaCl, 10% glycerol, 0.1% Tween 20, 1 mM TCEP, on ice 10 min; SPR: 10 mM HEPES pH 7.5, 150 mM NaCl, 1 mM DTT, 1% DMSO, temperature not stated. The following applies: protein: recombinant; tags: C-terminal AVI tag, biotinylated; N-terminal 9His-GST removed with TEV (construct stated for SPR/DSF); chain copies: 2; label: 32P 5' end (EMSA); none stated (SPR); blunt.

Series [5] has as its target T3, Brachyury full-length WT. Nature of the series: EMSA; apparent; Hill slope 2.3; DNA 1-5 nM; EMSA: 25 mM HEPES pH 7.4, 75 mM NaCl, 10% glycerol, 0.1% Tween 20, 1 mM TCEP, on ice 10 min; SPR: 10 mM HEPES pH 7.5, 150 mM NaCl, 1 mM DTT, 1% DMSO, temperature not stated. Conditions: protein: recombinant; tags: C-terminal AVI tag, biotinylated; N-terminal 9His-GST removed with TEV (construct stated for SPR/DSF); chain copies: 2; label: 32P 5' end (EMSA); none stated (SPR); blunt.

Series [6] deals with T4, Brachyury DNA binding domain G177D (Homo sapiens, UniProt O15178 41-224, G177D).
T4 sequence: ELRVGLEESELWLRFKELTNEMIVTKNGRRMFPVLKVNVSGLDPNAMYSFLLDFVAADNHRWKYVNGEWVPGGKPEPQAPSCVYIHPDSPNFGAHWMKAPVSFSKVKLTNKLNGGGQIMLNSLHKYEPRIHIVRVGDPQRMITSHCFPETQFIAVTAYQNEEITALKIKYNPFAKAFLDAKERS
The series can be described thus: X-ray crystallography; 2.15 A; two protomers per duplex; EMSA: 25 mM HEPES pH 7.4, 75 mM NaCl, 10% glycerol, 0.1% Tween 20, 1 mM TCEP, on ice 10 min; SPR: 10 mM HEPES pH 7.5, 150 mM NaCl, 1 mM DTT, 1% DMSO, temperature not stated. Conditions: protein: recombinant; chain copies: 2; blunt, self-complementary, 2 copies of strand.

B1: 24 bp palindromic T-box DNA (dsDNA)
DNA 1: AATTTCACACCTAGGTGTGAAATT
DNA 2: AATTTCACACCTAGGTGTGAAATT
With B1, the binding result in series [1] is “binds”.

B2: TA50 palindromic 50 bp (TA50-F/TA50-R) (dsDNA)
DNA 1: CATGCATGCAGGGAATTTCACACCTAGGTGTGAAATTCCCATTCGTGCGA
DNA 2: TCGCACGAATGGGAATTTCACACCTAGGTGTGAAATTCCCTGCATGCATG
For B2, the Kd came to 17.9 nM in series [2], 14.8 ± 2.4 nM with Brachyury full-length WT [3], 1.2 nM in series [4] and 1.4 nM in the series with Brachyury full-length WT [5].

B3: 26 bp palindromic T-box DNA (dsDNA)
DNA 1: GAATTTCACACCTAGGTGTGAAATTC
DNA 2: GAATTTCACACCTAGGTGTGAAATTC
B3: the binding result in series [6] is reported as “binds”.
